Measured values published in US20150274826A1 (ARCH ONCOLOGY, published 2015).
Numbering of substitutions follows the chain as printed. In names and notes the source's numbering stands.

B1: Clone 17.1 (hum17 IgG1 N297Q) (antibody)
heavy: EVQLVQSGAEVKKPGATVKISCKVSGYTFTNYYVFWIRQPPGKGLEWIGDINPVNGDTNFNEKFKNRVTITADKSTSTAYMELSSLRSEDTAVYYCARGGYTMDYWGQGTLVTVSSASTKGPSVFPLAPSSKSTSGGTAALGCLVKDYFPEPVTVSWNSGALTSGVHTFPAVLQSSGLYSLSSVVTVPSSSLGTQTYICNVNHKPSNTKVDKKVEPKSCDKTHTCPPCPAPELLGGPSVFLFPPKPKDTLMISRTPEVTCVVVDVSHEDPEVKFNWYVDGVEVHNAKTKPREEQYQSTYRVVSVLTVLHQDWLNGKEYKCKVSNKALPAPIEKTISKAKGQPREPQVYTLPPSR
light: AIQLTQSPSSLSASVGDRVTITCRSSQSLVHSNGNTYLHWYQQKPGQAPRLLIYKVSYRFSGVPDRFSGSGSGTDFTLKISRVEAEDVGVYYCSQNTHVPRTFGQGTKVEIKRTVAAPSVFIFPPSDEQLKSGTASVVCLLNNFYPREAKVQWKVDNALQSGNSQESVTEQDSKDSTYSLSSTLTLSKADYEKHKVYACEVTHQGLSSPVTKSFNRGEC
notes: IgG1 N297Q
B2: Clone 14.1 (hum14 IgG1 N297Q) (antibody)
heavy: QVQLQESGPGLVKPSQTLSLTCTVSGYTFTNYYVFWVRQARGQRLEWIGDINPVNGDTNFNEKFKNRVTISADKSISTAYLQWSSLKASDTAMYYCARGGYTMDYWGQGTLVTVSSASTKGPSVFPLAPSSKSTSGGTAALGCLVKDYFPEPVTVSWNSGALTSGVHTFPAVLQSSGLYSLSSVVTVPSSSLGTQTYICNVNHKPSNTKVDKKVEPKSCDKTHTCPPCPAPELLGGPSVFLFPPKPKDTLMISRTPEVTCVVVDVSHEDPEVKFNWYVDGVEVHNAKTKPREEQYQSTYRVVSVLTVLHQDWLNGKEYKCKVSNKALPAPIEKTISKAKGQPREPQVYTLPPSR
light: DVVMTQSPLSLPVTLGQPASISCRSSQSLVHSNGNTYLHWYQQKPGKAPKLLIYKVSYRFSGVPDRFSGSGSGTDFTLKISRVEAEDVGVYYCSQNTHVPRTFGQGTKVEIKRTVAAPSVFIFPPSDEQLKSGTASVVCLLNNFYPREAKVQWKVDNALQSGNSQESVTEQDSKDSTYSLSSTLTLSKADYEKHKVYACEVTHQGLSSPVTKSFNRGEC
notes: IgG1 N297Q
B3: Clone 5.2 (hum05 IgG4 S228P L235E) (antibody)
heavy: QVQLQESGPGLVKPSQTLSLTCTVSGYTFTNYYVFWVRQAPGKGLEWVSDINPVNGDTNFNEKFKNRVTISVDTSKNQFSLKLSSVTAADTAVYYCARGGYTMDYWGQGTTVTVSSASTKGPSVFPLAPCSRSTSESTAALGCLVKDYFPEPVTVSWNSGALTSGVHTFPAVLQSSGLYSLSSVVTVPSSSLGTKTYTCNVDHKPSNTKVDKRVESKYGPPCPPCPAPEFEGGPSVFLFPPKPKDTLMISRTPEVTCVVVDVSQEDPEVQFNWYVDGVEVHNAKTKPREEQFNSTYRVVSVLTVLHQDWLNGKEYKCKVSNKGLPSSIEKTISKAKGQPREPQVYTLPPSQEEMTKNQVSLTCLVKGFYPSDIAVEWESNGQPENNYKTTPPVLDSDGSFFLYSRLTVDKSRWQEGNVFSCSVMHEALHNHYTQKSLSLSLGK
light: B2 light with V2I, S7T, L15P, Q17E, Q42L, K47Q, A48S, K50Q
notes: IgG4 S228P L235E
B4: Clone 8.1 (hum08 IgG1 N297Q) (antibody)
heavy: QITLKESGPTLVKPTQTLTLTCTFSGYTFTNYYVFWIRQSPSRGLEWLGDINPVNGDTNFNEKFKNRFTISRDNAKNSLYLQMNSLRAEDTAVYYCARGGYTMDYWGQGTLVTVSSASTKGPSVFPLAPSSKSTSGGTAALGCLVKDYFPEPVTVSWNSGALTSGVHTFPAVLQSSGLYSLSSVVTVPSSSLGTQTYICNVNHKPSNTKVDKKVEPKSCDKTHTCPPCPAPELLGGPSVFLFPPKPKDTLMISRTPEVTCVVVDVSHEDPEVKFNWYVDGVEVHNAKTKPREEQYQSTYRVVSVLTVLHQDWLNGKEYKCKVSNKALPAPIEKTISKAKGQPREPQVYTLPPSR
light: B2 light with V2I, S7T, L15P, Q17E
notes: IgG1 N297Q
B5: Clone 5.1 (hum05 IgG1 N297Q) (antibody)
heavy: QVQLQESGPGLVKPSQTLSLTCTVSGYTFTNYYVFWVRQAPGKGLEWVSDINPVNGDTNFNEKFKNRVTISVDTSKNQFSLKLSSVTAADTAVYYCARGGYTMDYWGQGTLVTVSSASTKGPSVFPLAPSSKSTSGGTAALGCLVKDYFPEPVTVSWNSGALTSGVHTFPAVLQSSGLYSLSSVVTVPSSSLGTQTYICNVNHKPSNTKVDKKVEPKSCDKTHTCPPCPAPELLGGPSVFLFPPKPKDTLMISRTPEVTCVVVDVSHEDPEVKFNWYVDGVEVHNAKTKPREEQYQSTYRVVSVLTVLHQDWLNGKEYKCKVSNKALPAPIEKTISKAKGQPREPQVYTLPPSR
light: B2 light with V2I, S7T, L15P, Q17E, Q42L, K47Q, A48S, K50Q
notes: IgG1 N297Q
B6: Clone 1.2 (hum01 IgG4 S228P L235E) (antibody)
heavy: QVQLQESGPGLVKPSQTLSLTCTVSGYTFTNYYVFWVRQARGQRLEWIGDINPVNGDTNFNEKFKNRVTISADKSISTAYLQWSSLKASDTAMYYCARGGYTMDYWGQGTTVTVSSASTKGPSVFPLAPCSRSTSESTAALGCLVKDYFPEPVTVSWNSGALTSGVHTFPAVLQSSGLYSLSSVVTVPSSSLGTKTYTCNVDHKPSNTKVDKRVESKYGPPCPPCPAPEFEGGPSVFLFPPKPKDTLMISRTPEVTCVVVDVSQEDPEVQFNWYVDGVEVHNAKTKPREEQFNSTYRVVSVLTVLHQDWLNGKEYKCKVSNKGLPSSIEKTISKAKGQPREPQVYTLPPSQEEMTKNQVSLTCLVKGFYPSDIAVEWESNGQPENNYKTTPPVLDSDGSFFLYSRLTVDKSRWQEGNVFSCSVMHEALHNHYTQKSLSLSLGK
light: B2 light with V2I, S7T, L15P, Q17E
notes: IgG4 S228P L235E version of Clone 1; also called pVxK7b-037-hum01-HC-IgG4 S228P L235E-Pro
B7: Clone 13.2 (hum 13 IgG4 S228P L235E) (antibody)
heavy: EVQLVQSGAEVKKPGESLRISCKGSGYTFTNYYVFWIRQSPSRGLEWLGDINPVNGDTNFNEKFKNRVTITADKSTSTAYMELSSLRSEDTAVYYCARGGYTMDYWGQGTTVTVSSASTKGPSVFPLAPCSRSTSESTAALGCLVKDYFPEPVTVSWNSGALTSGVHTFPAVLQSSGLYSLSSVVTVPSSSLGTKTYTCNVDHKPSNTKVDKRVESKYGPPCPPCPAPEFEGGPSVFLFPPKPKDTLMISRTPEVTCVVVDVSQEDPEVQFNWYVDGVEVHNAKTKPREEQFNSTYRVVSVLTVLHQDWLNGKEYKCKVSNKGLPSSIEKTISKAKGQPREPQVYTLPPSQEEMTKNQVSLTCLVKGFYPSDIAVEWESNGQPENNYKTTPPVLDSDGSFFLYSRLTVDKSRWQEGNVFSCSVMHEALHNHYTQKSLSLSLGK
light: B2 light with V2I, S7T, L15P, Q17E
notes: IgG4 S228P L235E version of Clone 13
B8: Clone 8.2 (hum08 IgG4 S228P L235E) (antibody)
heavy: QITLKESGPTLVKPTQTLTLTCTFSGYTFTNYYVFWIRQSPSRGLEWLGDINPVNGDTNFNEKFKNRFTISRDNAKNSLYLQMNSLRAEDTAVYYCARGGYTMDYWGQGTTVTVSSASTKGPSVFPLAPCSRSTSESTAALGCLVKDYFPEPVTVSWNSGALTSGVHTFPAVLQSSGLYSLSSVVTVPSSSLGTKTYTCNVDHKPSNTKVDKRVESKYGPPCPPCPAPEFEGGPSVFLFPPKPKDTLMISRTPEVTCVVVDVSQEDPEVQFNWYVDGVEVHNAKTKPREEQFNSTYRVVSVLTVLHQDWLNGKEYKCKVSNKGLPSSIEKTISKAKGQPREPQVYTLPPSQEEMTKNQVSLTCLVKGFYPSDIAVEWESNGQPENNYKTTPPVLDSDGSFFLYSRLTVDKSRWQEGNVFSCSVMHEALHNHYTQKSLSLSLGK
light: B2 light with V2I, S7T, L15P, Q17E
notes: IgG4 S228P L235E
B9: Clone 14.2 (hum14 IgG4 S228P L235E) (antibody)
heavy: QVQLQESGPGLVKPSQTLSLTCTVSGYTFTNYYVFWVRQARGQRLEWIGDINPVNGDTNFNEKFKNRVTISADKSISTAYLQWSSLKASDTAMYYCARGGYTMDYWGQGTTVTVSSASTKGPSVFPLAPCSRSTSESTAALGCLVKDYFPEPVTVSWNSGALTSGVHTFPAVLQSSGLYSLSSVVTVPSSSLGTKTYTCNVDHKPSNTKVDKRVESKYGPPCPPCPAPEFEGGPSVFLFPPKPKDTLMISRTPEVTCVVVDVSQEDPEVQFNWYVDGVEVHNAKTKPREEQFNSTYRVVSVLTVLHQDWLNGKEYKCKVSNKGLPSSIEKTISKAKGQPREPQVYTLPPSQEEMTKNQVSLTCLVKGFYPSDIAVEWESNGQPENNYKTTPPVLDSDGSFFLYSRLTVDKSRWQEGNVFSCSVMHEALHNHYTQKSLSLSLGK
light: B2 light
notes: IgG4 S228P L235E
B10: Clone 3.1 (hum03 IgG1 N297Q) (antibody)
heavy: B1 heavy with A16E, T17S, V18L, K19R, V24G, I37V, P40A, P41R, K43Q, G44R
light: B2 light
notes: IgG1 N297Q
B11: Clone 3.2 (hum03 IgG4 S228P L235E) (antibody)
heavy: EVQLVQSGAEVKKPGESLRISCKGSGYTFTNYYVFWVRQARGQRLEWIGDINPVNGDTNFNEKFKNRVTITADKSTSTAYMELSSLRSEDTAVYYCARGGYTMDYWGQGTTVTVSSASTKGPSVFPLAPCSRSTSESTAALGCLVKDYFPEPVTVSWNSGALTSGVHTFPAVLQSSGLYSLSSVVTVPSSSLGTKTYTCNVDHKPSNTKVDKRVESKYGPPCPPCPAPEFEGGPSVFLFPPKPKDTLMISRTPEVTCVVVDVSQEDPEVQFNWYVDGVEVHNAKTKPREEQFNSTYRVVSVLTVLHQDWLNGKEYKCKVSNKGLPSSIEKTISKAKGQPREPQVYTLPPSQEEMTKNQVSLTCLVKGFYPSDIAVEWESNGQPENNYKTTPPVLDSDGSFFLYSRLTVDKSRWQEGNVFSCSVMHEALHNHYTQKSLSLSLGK
light: B2 light
notes: IgG4 S228P L235E
B12: Clone 18 (pVxK7b-037-hum18-LC / pVxK7b-037-hum18-HC) (antibody, human IgG1, kappa, V domains shown)
VH: EVQLVQSGAEVKKPGESLRISCKGSGYTFTNYYVFWIRQSPSRGLEWLGDINPVNGDTNFNEKFKNRVTITADKSTSTAYMELSSLRSEDTAVYYCARGGYTMDYWGQGTLVTVSS
VL: EIVLTQSPATLSVSPGERATLSCRSSQSLVHSNGNTYLHWYQQKPGQAPRLLIYKVSYRFSGVPSRFSGSGSGTDFTFTISSLEAEDAATYYCSQNTHVPRTFGQGTKVEIKR

Legend:
human CD47 [1] = target: T1, human CD47 (human, UniProt Q08722 19-323); assay: cell-based ELISA on human OV10 cells, apparent Kd
T1 construct: whole, on cells; also called CD47 on human RBCs; CD47 on OV10 cells
T1 sequence (Q08722 19-323): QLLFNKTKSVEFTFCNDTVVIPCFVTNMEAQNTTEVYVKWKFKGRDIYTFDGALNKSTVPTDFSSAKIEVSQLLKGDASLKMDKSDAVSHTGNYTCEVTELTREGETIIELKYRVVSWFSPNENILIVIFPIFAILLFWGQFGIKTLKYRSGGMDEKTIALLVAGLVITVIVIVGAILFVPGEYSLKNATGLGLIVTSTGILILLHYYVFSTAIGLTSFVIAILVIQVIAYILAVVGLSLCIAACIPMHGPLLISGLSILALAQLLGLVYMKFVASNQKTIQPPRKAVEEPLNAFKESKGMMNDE
Procedure: (§1) OV10 cells are grown in IMDM medium containing 10% heat inactivated fetal bovine serum (BioWest; S01520) and 4T1 cells are grown in RMPI medium containing 10% heat inactivated fetal bovine serum (BioWest; S01520). One day before assay, 3×10⁴ cells are plated in 96 well cell bind plates (Corning #3300, VWR #66025-626) so that they are 95-100% confluent at the time of assay. Cells are washed and various concentrations of purified antibodies added in either IMDM or RPMI at 37° C. for 1 hour in […]. Cells are then washed with media and incubated for an additional hour at 37° C. with HRP labeled secondary anti-human antibody (Promega) diluted 1/2500 in media. Cells are washed three times with PBS, and the peroxidase substrate 3,3′,5,5′-tetramethylbenzidine is added (Sigma; Catalog #T4444). Reactions are terminated by the addition of HCl to 0.7N, and absorbance at 450 nm is determined using a Tecan model Infinite M200 plate reader. The apparent binding affinities of these clones to human and mouse cells is determined by non-linear fits (Prism GraphPad software). […] Agglutination of human RBCs is assessed following incubation of human RBCs with various concentrations of humanized blocking only clones. Blood is diluted (1:50) and washed 3 times with PBS/EDTA/BSA. RBCs are added to U-bottomed 96 well plates with equal volumes of the antibodies (75 μl) and incubated for 3 hrs at 37° C. and overnight at 4° C.

mouse CD47 [2] = target: T2, mouse CD47 (mouse, UniProt Q61735 19-303); assay: cell-based ELISA on mouse 4T1 cells, apparent Kd
T2 construct: whole, on cells; also called CD47 on mouse RBCs; CD47 on 4T1 cells
T2 sequence (looked up): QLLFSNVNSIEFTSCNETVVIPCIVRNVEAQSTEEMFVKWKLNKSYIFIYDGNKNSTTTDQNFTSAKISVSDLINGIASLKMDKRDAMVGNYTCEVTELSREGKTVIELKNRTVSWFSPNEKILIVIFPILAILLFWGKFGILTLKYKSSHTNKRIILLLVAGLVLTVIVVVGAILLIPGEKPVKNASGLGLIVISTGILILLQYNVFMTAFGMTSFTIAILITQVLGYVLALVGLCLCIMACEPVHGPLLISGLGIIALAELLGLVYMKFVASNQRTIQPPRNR
Procedure: as §1

dog CD47 = target: T3, dog CD47 (dog, UniProt A0A8I3PM61 19-310); assay: flow cytometry on RBCs, CHO supernatant 10 ng/ml
T3 construct: also called CD47 on dog RBCs
T3 sequence: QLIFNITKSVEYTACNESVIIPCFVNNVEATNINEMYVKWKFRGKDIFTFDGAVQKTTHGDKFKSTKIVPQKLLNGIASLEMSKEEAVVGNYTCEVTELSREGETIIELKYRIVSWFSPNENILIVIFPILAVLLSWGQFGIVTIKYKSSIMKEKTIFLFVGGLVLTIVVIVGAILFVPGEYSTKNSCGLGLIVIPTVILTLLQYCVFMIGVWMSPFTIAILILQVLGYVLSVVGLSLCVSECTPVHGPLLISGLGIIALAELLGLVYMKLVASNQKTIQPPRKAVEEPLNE
Procedure: (§2) RBCs are incubated for 60 minutes on ice with tissue culture supernatants containing the secreted humanized antibodies at a concentration of 10 ng/ml in a solution of phosphate buffered saline, pH 7.2, 2.5 mM EDTA (PBS+E), or with various concentrations of purified antibodies. Cells are then washed with cold PBS+E, and incubated for an additional hour on ice with FITC labeled donkey anti-human antibody (Jackson Immuno Research Labs, West Grove, Pa.; Catalogue #709-096-149) in PBS+E. Cells are then washed with PBS+E, and antibody binding is analyzed using a BD FACSAria Cell Sorter (Becton Dickinson) or a C6 Accuri Flow Cytometer (Becton Dickinson). Antibody binding is quantitated by comparison of mean fluorescence values relative to that of chimeric antibody >VxP037-01LC (SEQ ID NO:7))/>VxPO37-01HC (SEQ ID NO:57). The mean fluorescence value for each antibody is divided by the mean fluorescence value for the chimeric antibody.

human CD47 [3] = target: T1, human CD47; assay: flow cytometry on RBCs, CHO supernatant 10 ng/ml
Procedure: as §2

rat CD47 = target: T4, rat CD47 (rat, UniProt P97829 19-303); assay: flow cytometry on RBCs, CHO supernatant 10 ng/ml
T4 construct: whole, on cells; also called CD47 on rat RBCs
T4 sequence (looked up): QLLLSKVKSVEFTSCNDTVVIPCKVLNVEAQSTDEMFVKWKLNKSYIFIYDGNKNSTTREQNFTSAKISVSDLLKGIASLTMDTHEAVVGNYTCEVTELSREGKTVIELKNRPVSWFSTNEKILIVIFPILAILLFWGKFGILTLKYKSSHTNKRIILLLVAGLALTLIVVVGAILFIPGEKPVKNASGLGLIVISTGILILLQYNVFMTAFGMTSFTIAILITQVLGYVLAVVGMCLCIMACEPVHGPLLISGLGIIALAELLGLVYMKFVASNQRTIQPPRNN
Procedure: as §2

pig CD47 = target: T5, pig CD47 (pig, UniProt Q9GKE8 19-303); assay: flow cytometry on RBCs, CHO supernatant 10 ng/ml
T5 construct: whole, on cells; also called CD47 on porcine RBCs
T5 sequence (looked up): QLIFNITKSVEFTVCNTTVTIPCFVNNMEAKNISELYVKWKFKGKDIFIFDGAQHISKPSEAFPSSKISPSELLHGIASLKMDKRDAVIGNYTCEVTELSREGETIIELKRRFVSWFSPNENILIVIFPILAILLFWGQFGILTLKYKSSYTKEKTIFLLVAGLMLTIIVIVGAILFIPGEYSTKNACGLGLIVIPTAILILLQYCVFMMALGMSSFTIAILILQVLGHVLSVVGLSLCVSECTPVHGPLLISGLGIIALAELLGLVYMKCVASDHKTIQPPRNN
Procedure: as §2

mouse CD47 [4] = target: T2, mouse CD47; assay: flow cytometry on RBCs, CHO supernatant 10 ng/ml
Procedure: as §2

Binder | Kd (human CD47 [1]) [nM] | Kd (mouse CD47 [2]) [nM] | other results
B1 | 0.0855 | 0.198 | 
B2 | 0.0962 | 0.0949 | 
B3 | 0.107 | 0.172 | 
B4 | 0.115 | 0.205 | 
B5 | 0.125 | 0.112 | 
B6 | 0.15 | 0.175 | 
B7 | 0.108 | 0.178 | 
B8 | 0.121 | 0.0949 | 
B9 | 0.0899 | 0.102 | 
B10 | 0.115 | 0.132 | 
B11 | 0.129 | 0.202 | 
B12 |  |  | mean fluorescence relative to chimeric antibody (dog CD47): 1.5 ratio; mean fluorescence relative to chimeric antibody (human CD47 [3]): 1 ratio; mean fluorescence relative to chimeric antibody (rat CD47): 2.2 ratio; mean fluorescence relative to chimeric antibody (pig CD47): 1.2 ratio; mean fluorescence relative to chimeric antibody (mouse CD47 [4]): 1.3 ratio
